Patent publication US7585836B2, “Bi-lateral local renal delivery for treating congestive heart failure and for BNP therapy” (priority 2004, dated 2009)
Several values for one entry are separate records, joined by “and”; a condition that tells them apart may be missing. Equal values may be shown once.

Columns and labels:
[1] = Pharmacokinetics: serum BNP levels after intra-renal (IR) versus intravenous (IV) BNP administration in the canine model; type: in vivo; details: for difference between serum BNP levels with IR versus IV infusion at comparable time points: higher with IV
Protocol: (§1) IR versus IV administration of human recombinant BNP (Natrecor® agent, Scios, Inc., Johnson & Johnson) was compared in the canine model (two animals). IR infusion was achieved using the FlowMedica Benephit™ Infusion System (FlowMedica, Inc.). IV and IR administration was performed in each animal sequentially, and the administration periods were separated by five days to allow for washout and re-acclimation of the animals. IV administration was conducted on the first day in both animals. Other than the route of BNP administration, all other parameters were identical between the IV and IR administration days in both dogs.
(§2) Canine #1 received a 2 mcg/kg/min bolus of BNP followed immediately by a 0.15 mcg/kg/min BNP infusion for 90 minutes, followed by a 2-hour washout period. Then vasoconstriction was induced via phenylepherine until mean arterial pressure (MAP) was increased by approximately 30% (approximately 1 hour), and then BNP was again administered at 0.15 mcg/kg/min for 90 minutes.
Canine #2 received a 2 mcg/kg/min BNP bolus followed immediately by a 4-hour continuous infusion of BNP at 0.15 mcg/kg/min.
(§3) Key endpoints included serum levels of BNP (pharmacokinetics, both animals) following IR and IV BNP administration, and blood pressure response in response IR and IV BNP administration (Canine #1 only).

[2] = system: canine model; assay: Blood pressure (mean arterial pressure) response to IR and IV BNP during phenylepherine-induced vasoconstriction; type: in vivo; details: Canine #1, constricted vascular state induced by phenylepherine
Protocol: as §1, §2, §3

nesiritide [BNP]
difference between serum BNP levels with IR versus IV infusion at comparable time points ([1]; Canine #1, 2 mcg/kg/min bolus then 0.15 mcg/kg/min infusion): 75% and 66% | difference between serum BNP levels with IR versus IV infusion at comparable time points ([1]; Canine #2, 2 mcg/kg/min bolus then 4-hour infusion at 0.15 mcg/kg/min): 61% and 69% | lower systemic levels with IR than with IV administration of the same dose ([1]; both canines, same dose): 61-75% | average reduction of steady-state plasma BNP levels, IR versus systemic (IV) administration ([1]; two dogs, given dose IR versus IV): 63% | maximum reduction in mean arterial pressure (MAP) ([2]; IR BNP 0.15 mcg/kg/min): 15% | maximum reduction in mean arterial pressure (MAP) ([2]; IV BNP 0.15 mcg/kg/min): 50%
